B1: Spexin (peptide, UniProt Q9BT56 27-116, looked up)
Spexin: APQRLLERRNWTPQAMLYLKGAQGRRFISDQSRRKDLSDRPLPERRSPNPQLLTIPEAATILLASLQKSPEDEEKNFDQTRFLEDSLLNW
modifications: Spexin
notes: endogenous peptide ligand of Galr2 and Galr3; synthesized by AnyGen

Tests used:
Galr2 = assay: Gαq-dependent Erk1/2 phosphorylation (β-arrestin1/2-knockout HEK293 cells); format: cell-based, human; conditions: for ΔLog(τ/KA), Gαq-dependent-pErk1/2: normalized to Galanin (reference agonist), in parenthesis, mean ± s.e.m. of three experiments in triplicate; for Log(τ/KA), Gαq-dependent-pErk1/2: western blot, 5 min stimulation, operational model (Eq. 2), mean ± s.e.m. of three experiments in triplicate (table footnote)
Description: Galr2 is primarily coupled to the Gαq-protein which activates the phospholipase C/protein kinase C pathway for inositol phosphate production. We measured G-protein activation in HEK293 cells transiently expressing Galr2, using the serum response element-luciferase (SRE-Luc) gene reporter assay[10],[37] and for a more specific monitoring of Gαq-protein activity we also measured total inositol phosphate production. […] However, some differences were observed between SRE-Luc activity and total inositol phosphate production in the rank order of potency of the tested ligands. […] Phosphorylation of extracellular signal-regulated protein kinases 1 and 2 (pErk1/2) is either G-protein or β-arrestin dependent. To distinguish Gαq-protein- and β-arrestin1/2-dependent Erk1/2 signaling, we examined ligand-stimulated Erk1/2 phosphorylation in three different HEK293 cell lines, wild type, Gαq/11-knockout, and β-arrestin1/2-knockout cells. All three ligands induced high levels of Erk1/2 phosphorylation dose-dependently in wild-type HEK293 cells.
Fig. 5 Galr2 agonists display different Gαq-protein-dependent signaling and pErk1/2. The ability of increasing concentrations of agonists to induce a SRE-Luc activity and b total inositol phosphate production. c Representative western blot showing ligand-induced phosphorylation of Erk1/2 from wild-type (HEK293 WT), Gαq/11-, and β-arrestin1/2-knockout HEK293 cells expressing Galr2 (original blots are presented in Supplementary Figure 4). pErk1/2 and total Erk levels were determined at 5 min after stimulation of different concentrations of three ligands. Western blot band intensities corresponding to each concentration were quantified using Image studio ^TM Software. […] Data are the mean ± s.e.m. values of two independent experiments
pErk1/2 was measured using western blot assay. HEK293 Gαq/11 and β-arrestin1/2-knockout cells were a kind gift from Professor Asuka Inoue, Tohoku University. The cells were seeded into 6-well plates at a density of 6 × 10^5 cells per well. The next day, they were transfected using 2 μg/well of plasmid containing human Galr2 cDNA and Lipofectamine 2000, according to the manufacturer’s instructions. Before assay, the cells were washed with phosphate-buffered saline and incubated in serum-free DMEM overnight. Dose–response experiments were performed for each ligand at 37 °C. Stimulation of the cells was terminated after 5 min of agonist stimulation by removing the medium, and the addition of 250 μl cold lysis buffer to each well. Immunoblots of phospho-Erk1/2 were obtained using 8 μg of total protein and p44/42 MAPK Erk1/2 antibody (Cell Signaling Technology Inc, catalog no. 4370 S); horseradish peroxidase-conjugated goat anti-rabbit IgG was used as a secondary antibody (Thermo Fisher Scientific). The proteins were visualized using enhanced chemiluminescence (GE Health Care). Image Studio ^TM Software was used for the pErk1/2 band density analysis.

human Galr2 = assay: Recruitment of β-arrestin2-FlasH1-3 to Galr2 (NanoBit); format: cell-based; conditions: NanoBit luminescence
Description: To investigate the effects of GPCR activation on the dynamics of β-arrestin2 conformation, we developed a series of FlasH BRET conformational biosensors[31],[32] by inserting the six-amino-acid motif, CCPGCC, immediately after the amino acid residue 140 (FlasH1), 263 (FlasH2), and 410 (FlasH3), respectively, into the human β-arrestin2 (Fig. 7a, b). Due to its characteristics (e.g., small size, stable, and bright and sustained luminescence)[33], we covalently linked the Nluc to the N terminus of β-arrestin2 during probe design. Each probe (Nluc–β-arrestin2–FlasH1, 2, and 3) was designed to measure BRET between Nluc and a fluorescein arsenical acceptor located at one of three positions along β-arrestin2. […] All three ligands were able to recruit these β-arrestin2–FlasH constructs to induce luminescence signals, although some signals were lower than that of wild-type β-arrestin2 (Fig. 7c). […]
The arrows indicate the time for treatment with the corresponding agonist. d Nluc–β-arrestin2–FlasH1-3 “conformational hallmarks” of β-arrestin2 by binding to Galr2. The bar graphs depict mean ± s.e.m. values of independent biological replicates (n = 3). *P < 0.05, **P < 0.005, statistically significant differences versus Galanin-stimulated control as determined by a one-way analysis of variance (ANOVA). […]

mice = conditions: cited from earlier work
Description: (§1) G-protein-coupled receptors (GPCRs) are the largest family of cell surface receptors that communicate extracellular stimuli to the cell interior[1]. Biased ligands are of particular interest because they offer the possibility to design a novel class of therapeutic agents. In some GPCRs, biased ligands that preferentially activate G-protein-dependent signaling have therapeutic potential. […] Most descriptions of biased ag ...

[1] = target: T1, Galr2–β-arrestin2 complex (Homo sapiens, UniProt O43603); assay: Reversal assay for dissociation kinetics; format: cell-based
T1 construct: expressed in transfected cells; host or cells: HEK293 cells, transient transfection with Lipofectamine 2000; b62 only says 'the cells'
T1 sequence (O43603 whole entry): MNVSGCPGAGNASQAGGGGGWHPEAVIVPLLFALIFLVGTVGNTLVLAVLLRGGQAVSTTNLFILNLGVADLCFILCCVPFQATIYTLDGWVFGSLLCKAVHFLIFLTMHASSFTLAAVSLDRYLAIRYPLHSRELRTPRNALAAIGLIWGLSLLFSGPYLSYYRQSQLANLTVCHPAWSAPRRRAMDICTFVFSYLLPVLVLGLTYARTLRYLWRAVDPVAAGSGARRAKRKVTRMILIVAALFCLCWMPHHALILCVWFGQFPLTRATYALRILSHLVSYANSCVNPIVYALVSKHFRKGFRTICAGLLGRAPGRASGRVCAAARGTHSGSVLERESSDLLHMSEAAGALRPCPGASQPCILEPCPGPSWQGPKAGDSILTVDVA
T1 sequence (P32121 whole entry partner): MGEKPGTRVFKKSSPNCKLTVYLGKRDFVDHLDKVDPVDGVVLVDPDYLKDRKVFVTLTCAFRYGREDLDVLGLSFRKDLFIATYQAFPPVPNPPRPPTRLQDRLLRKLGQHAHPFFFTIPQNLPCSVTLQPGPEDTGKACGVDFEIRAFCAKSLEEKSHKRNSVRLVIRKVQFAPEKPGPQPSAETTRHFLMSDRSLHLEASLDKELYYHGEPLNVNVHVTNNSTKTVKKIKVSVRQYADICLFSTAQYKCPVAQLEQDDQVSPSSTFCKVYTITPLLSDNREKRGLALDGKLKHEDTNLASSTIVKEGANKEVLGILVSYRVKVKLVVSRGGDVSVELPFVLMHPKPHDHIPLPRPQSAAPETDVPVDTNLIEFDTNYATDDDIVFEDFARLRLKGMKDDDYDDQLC
Description: The decay of the luminescent signal may reflect dissociation rate of ligand from Galr2 as the β-arrestin2 response returns to basal levels in washout experiments.
Ligand removal was performed by simply changing the medium containing no ligand and then immediately continue measuring luminescence. Samples with no ligand removal were used as a control. […] The results are expressed as the mean ± s.e.m. values of two independent experiments
One day before transfection, the cells were seeded in 96-well plates at a density of 2.5 × 10^4 cells per well. […] At 24 h post transfection, the medium was aspirated and replaced with 100 μl OPTIMEM and incubated at room temperature. After a 10-min incubation, 25 μl substrate (furimazine) was added, and once every minute subsequent luminescence measurements were taken for 10 min for signal stabilization. A total of 10 μl ligand was then added to each well and luminescence measurements were recorded immediately and once every minute during 10 min for signal stabilization. After that time wells allocated for ligand removal, ligand containing medium was replaced for medium containing only furimazine substrate and no ligand. Immediately continued recording the time course luminescence values once every minute during 1 h.

[2] = test system: diet-induced obese rodents; conditions: cited from earlier work
Description: as §1

[3] = test system: galanin receptor 1 (Galr1); conditions: cited from earlier work
Description: as §1

goldfish = conditions: cited from earlier work
Description: as §1

[4] = test system: luteinizing hormone (LH) secretion; conditions: cited from earlier work
Description: as §1

| half-life (t1/2) of Galr2–β-arrestin2 complex luminescence decay after ligand removal ([1]; HEK293 cells, 10 μM agonist, washout, indirect measure of ligand dissociation, mean ± s.e.m. of two independent experiments) [min] | residence time relative to Galanin ([1]; reversal dissociation assay) | Molecule | ΔLog(τ/KA), Gαq-dependent-pErk1/2 (Galr2) | Log(τ/KA), Gαq-dependent-pErk1/2 (Galr2) | recruitment of β-arrestin2–FlasH1-3 constructs (human Galr2) | food intake (mice) | pathway responsible for agonist-induced Erk1/2 phosphorylation (Galr2; from comparison of wild-type, Gαq/11- and β-arrestin1/2-knockout HEK293 cells) | decrease in luminescence signal after ligand removal ([1]; 10 μM agonist, medium change, two independent experiments) | body weight [2] | activation of Galr1 [3] | appetite (goldfish) | LH secretion, goldfish [4] |
| --- | --- | --- | --- | --- | --- | --- | --- | --- | --- | --- | --- | --- |
|  |  | Galanin [reference compound] | 0.00 ± .22 | 6.90 ± 0.22 | maximal response | food intake increase |  |  |  |  |  |  |
| 3.35 ± 0.7 | significantly shorter than Galanin | B1 | 0.57 ± 0.22 | 7.47 ± 0.21 |  |  | likely mainly attributable to the G-protein-dependent signaling pathway | rapid decrease in luminescence signal back to basal levels | weight loss | does not activate Galr1 | suppresses appetite | attenuates LH secretion |

Reference: paper PMC6123711, “Conformational signatures in β-arrestin2 reveal natural biased agonism at a G-protein-coupled receptor” (Communications Biology, 2018)
